This is an account of results in the supplement of paper PMC10567573.

B1: PCMTD2 (parent)
chain: FFIRTSDSFDKFDFCEPSFVTGNC
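Further: lentivirally expressed fusions sorted by FACS into six bins by GFP to DsRed ratio, PSI derived from sequencing read proportions per bin multiplied by bin number.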

This series covers variants of B1. Put plainly: protein stability index of a GFP-peptide fusion (GPS, HEK-293T) (PSI 1-6); higher = more stable. Particulars: c terminus: a fixed tail appended.
As for FFIRTSDSFDKFDYCEPSFVTGNC [F14Y], the protein stability index amounted to 2.92. Then FFIRTSDSFDKFDFCEPSFVVGNC [T21V], with 3.86; and FFIRTSDSFDKFDFCEPSFVYGNC [T21Y], with 2.49; and FFIRTSDSFDKFDFCEPSFVNGNC [T21N], with 2.27.

For FFIRTSDSFDKFDFCEPSFVDGNC [T21D], the protein stability index stood at 1.71.

With FFIRTSDSFDKFDFCEPSFVHGNC [T21H], the protein stability index amounted to 1.47. In the case of FFIRTSDSFDKFDFCEPSFVAGNC [T21A], the protein stability index amounted to 2.61. With FFIRTSDSFDKFDFCEPSFVWGNC [T21W], the protein stability index was found to be 2.76.

Turning to FFIRTSDSFDKFDFCEPSFVIGNC [T21I], the protein stability index is 2.9. As for FFIRTSDSFDKFDFCEPSFVFGNC [T21F], the figure is 3.34; as for FFIRTSDSFDKFDFCEPSFVMGNC [T21M], 3.19; as for FFIRTSDSFDKFDFCEPSFVSGNC [T21S], 2.18. As for FFIRTSDSFDKFDFCEPSFVPGNC [T21P], the figure is 3.61. As for FFIRTSDSFDKFDFCEPSFVEGNC [T21E], the figure is 2.4; as for FFIRTSDSFDKFDFCEPSFVQGNC [T21Q], 2.22. For FFIRTSDSFDKFDFCEPSFVKGNC [T21K], the protein stability index is 2.3. As for FFIRTSDSFDKFDFCEPSFVLGNC [T21L], the figure is 3.84; as for FFIRTSDSFDKFDFCEPSFVGGNC [T21G], 3.28; as for FFIRTSDSFDKFDFCEPSFVTNNC [G22N], 2.16. For the variant FFIRTSDSFDKFDFCEPSFVTPNC [G22P], the protein stability index was 3.09.

With FFIRTSDSFDKFDFCEPSFVTMNC [G22M], the protein stability index turned out to be 3.08. As to FFIRTSDSFDKFDFCEPSFVTCNC [G22C], the protein stability index worked out at 2.71.

Consider FFIRTSDSFDKFDFCEPSFVTLNC [G22L], for which the protein stability index amounted to 2.03. As for FFIRTSDSFDKFDFCEPSFVTKNC [G22K], the figure is 2.1; as for FFIRTSDSFDKFDFCEPSFVTENC [G22E], 2.16. Then FFIRTSDSFDKFDFCEPSFVTVNC [G22V], with 4.43; and FFIRTSDSFDKFDFCEPSFVTSNC [G22S], with 2.07; and FFIRTSDSFDKFDFCEPSFVTTNC [G22T], with 2.24.

Take FFIRTSDSFDKFDFCEPSFVTYNC [G22Y]: the protein stability index stood at 1.85. Consider FFIRTSDSFDKFDFCEPSFVTFNC [G22F], for which the protein stability index was 1.68. With FFIRTSDSFDKFDFCEPSFVTRNC [G22R], the protein stability index stood at 1.87. As for FFIRTSDSFDKFDFCEPSFVTINC [G22I], the figure is 2.8. On to FFIRTSDSFDKFDFCEPSFVTANC [G22A], for which the protein stability index was found to be 2.

As to FFIRTSDSFDKFDFCEPSFVTHNC [G22H], the protein stability index turned out to be 3.63. As for FFIRTSDSFDKFDFCEPSFVTQNC [G22Q], the figure is 2.74; as for FFIRTSDSFDKFDFCEPSFVTWNC [G22W], 3.23. On to FFIRTSDSFDKFDFCEPHFVTGNC [S18H], for which the protein stability index is 3.19.

As for FFIRTSDSFDKFDFCEPIFVTGNC [S18I], the protein stability index stood at 2.48. Consider FFIRTSDSFDKFDFCEPYFVTGNC [S18Y], for which the protein stability index stood at 2.11. As for FFIRTSDSFDKFDFCEPAFVTGNC [S18A], the figure is 1.76; as for FFIRTSDSFDKFDFCEPMFVTGNC [S18M], 3.36; as for FFIRTSDSFDKFDFCEPFFVTGNC [S18F], 2.02. Then FFIRTSDSFDKFDFCEPLFVTGNC [S18L], with 4.02; and FFIRTSDSFDKFDFCEPPFVTGNC [S18P], with 2.57. As for FFIRTSDSFDKFDFCEPGFVTGNC [S18G], the figure is 2.81; as for FFIRTSDSFDKFDFCEPNFVTGNC [S18N], 2.91. On to FFIRTSDSFDKFDFCEPCFVTGNC [S18C], for which the protein stability index was 3.71. Then FFIRTSDSFDKFDFCEPVFVTGNC [S18V], with 2.45.

For the variant FFIRTSDSFDKFDFCEPWFVTGNC [S18W], the protein stability index was determined as 3.1.

With FFIRTSDSFDKFDFCEPEFVTGNC [S18E], the protein stability index amounted to 2.4.

Take FFIRTSDSFDKFDFCEPRFVTGNC [S18R]: the protein stability index is 2.39. For FFIRTSDSFDKFDFCEPDFVTGNC [S18D], the protein stability index amounted to 2.42.

On to FFIRTSDSFDKFDFCEPKFVTGNC [S18K], for which the protein stability index came to 3.26.

Regarding FFIRTSDSFDKFDFCEPTFVTGNC [S18T], the protein stability index is 2.54.

Turning to FFIRTSDSFDKFDFVEPSFVTGNC [C15V], the protein stability index is 2.05. Turning to FFIRTSDSFDKFDFLEPSFVTGNC [C15L], the protein stability index was 3.34. Turning to FFIRTSDSFDKFDFDEPSFVTGNC [C15D], the protein stability index is 2.14.

Regarding FFIRTSDSFDKFDFYEPSFVTGNC [C15Y], the protein stability index is 3.03. Consider FFIRTSDSFDKFDFPEPSFVTGNC [C15P], for which the protein stability index was 3.43. With FFIRTSDSFDKFDFGEPSFVTGNC [C15G], the protein stability index came to 3.49. Then FFIRTSDSFDKFDFTEPSFVTGNC [C15T], with 2.3; and FFIRTSDSFDKFDFFEPSFVTGNC [C15F], with 3.17; and FFIRTSDSFDKFDFREPSFVTGNC [C15R], with 2.15. Consider FFIRTSDSFDKFDFEEPSFVTGNC [C15E], for which the protein stability index was found to be 2.06. As for FFIRTSDSFDKFDFWEPSFVTGNC [C15W], the figure is 2.31; as for FFIRTSDSFDKFDFAEPSFVTGNC [C15A], 2.24; as for FFIRTSDSFDKFDFKEPSFVTGNC [C15K], 2.43. As for FFIRTSDSFDKFDFIEPSFVTGNC [C15I], the figure is 3.14; as for FFIRTSDSFDKFDFSEPSFVTGNC [C15S], 2.04. Consider FFIRTSDSFDKFDFMEPSFVTGNC [C15M], for which the protein stability index came out at 1.98. Consider FFIRTSDSFDKFDFNEPSFVTGNC [C15N], for which the protein stability index is 2.98. With FFIRTSDSFDKFDFHEPSFVTGNC [C15H], the protein stability index was 2.62. As for FFIRTSDSFDKFDFQEPSFVTGNC [C15Q], the figure is 3.22. For the variant FFIRTSDSFDKFDFCEPSFQTGNC [V20Q], the protein stability index is 1.79. As for FFIRTSDSFDKFDFCEPSFNTGNC [V20N], the figure is 2.73; as for FFIRTSDSFDKFDFCEPSFATGNC [V20A], 2.2. Then FFIRTSDSFDKFDFCEPSFFTGNC [V20F], with 3; and FFIRTSDSFDKFDFCEPSFWTGNC [V20W], with 2.15; and FFIRTSDSFDKFDFCEPSFHTGNC [V20H], with 2.32. FFIRTSDSFDKFDFCEPSFSTGNC [V20S]: the protein stability index stood at 2.47. Take FFIRTSDSFDKFDFCEPSFLTGNC [V20L]: the protein stability index came out at 3.22.

FFIRTSDSFDKFDFCEPSFRTGNC [V20R]: the protein stability index was 2.53. With FFIRTSDSFDKFDFCEPSFETGNC [V20E], the protein stability index worked out at 2.26. Turning to FFIRTSDSFDKFDFCEPSFPTGNC [V20P], the protein stability index worked out at 1.62. On to FFIRTSDSFDKFDFCEPSFGTGNC [V20G], for which the protein stability index is 1.61. As to FFIRTSDSFDKFDFCEPSFYTGNC [V20Y], the protein stability index is 1.91. Then FFIRTSDSFDKFDFCEPSFTTGNC [V20T], with 2.58; and FFIRTSDSFDKFDFCEPSFMTGNC [V20M], with 2.5. As for FFIRTSDSFDKFDFCEPSFITGNC [V20I], the figure is 2.54; as for FFIRTSDSFDKFDFCEPSFDTGNC [V20D], 1.76; as for FFIRTSDSFDKFDFCEPSFKTGNC [V20K], 1.86. Turning to FFIRTSDSFDKFDFCEPSFCTGNC [V20C], the protein stability index was determined as 2.37.
